Test results: PMC3554631, “Structural Basis of a Histone H3 Lysine 4 Demethylase Required for Stem Elongation in Rice” (PLoS Genetics, 2013)

Tests used:
Assay type in all cases: cell-based
Conditions in all cases: mutant expressed transiently in tobacco cells, immunostaining of nuclei, at least 30 nuclei per transfection
H3K4me1 = test: H3K4 demethylation assay in tobacco cells of JMJ703 substitution mutants, H3K4me1
Protocol: (§1) The cDNA fragment of the J3NCZ region was amplified using primers FAJ3NCZ-F and FAJ3NCZ-R and then cloned into pFA121 vector modified from pBI121 (GenBank: AF485783.1), in which GUS was replaced by 2×FLAG∶2×HA tag. The pFA121-J3NCZ plasmid was transferred into Agrobacterium tumefaciens strain EHA105 cells for tobacco infection with the help of Agrobacterium cells harboring P19 plasmids. For in vivo histone demethylation assay, tobacco infection and nuclei isolation were performed as previously described. The immunostaining protocol was modified from http://sites.bio.indiana.edu/~pikaardlab. Briefly, the nucleus solution was placed on a poly-lysine coated slide, air dried, and then refixed with 4% formaldehyde in KPBS (1.28 M NaCl, 20 mM KCl, 80 mM Na2HPO4, 20 mM KH2PO4, pH7.2) containing 1% Triton X-100 for 20 min. After 3 washes with KPBS-1% Triton, slides were blocked with blocking solution (1% BSA in KPBS-1% Triton) and incubated at 37°C for 30 min. The blocking solution was washed off with KPBS-1% Triton and the slides were incubated with both anti-HA and histone méthylation specific antibodies diluted in blocking solution to 1∶300 at 4°C overnight. After washing with KPBS, slides were blocked and incubated with fluorescent-labeled antibodies at 37°C for 2 h. After washing with KPBS thrice, nuclei were stained with 5 µg/mL 4,6-diamidino-2-phenylindole (DAPI), coated with a drop of VECTASHIELD Mounting Medium (H-1000, Vector Laboratories), and then covered with a coverslip followed by confocal microscope (Leica) detection. In vitro histone demethylation assays were performed as previously described. FA-J3NCZ was purified after overexpression with Anti-FLAG M2 magnetic beads according the manufacturer's instruction (Sigma).
(§2) Supplementary file pgen.1003239.s006.tif: Figure S6 Demethylation assays for JMJ703 substitution mutants that have been produced based on the structural data. The mutant names are labeled at the top left corner of each panel. Image panels from left to right are staining by DAPI, anti-HA and anti-methylated histones, respectively. Bar = 10 µm. At least 30 nuclei that expressed JMJ703 per transfection were observed and imaged. (TIF) Click here for additional data file.

H3K4me2 = test: H3K4 demethylation assay in tobacco cells of JMJ703 substitution mutants, H3K4me2
Protocol: as §1, §2

H3K4me3 = test: H3K4 demethylation assay in tobacco cells of JMJ703 substitution mutants, H3K4me3
Protocol: as §1, §2

B1: H394A: JMJ703 substitution mutant, Fe-binding residue (protein, UniProt Q53WJ1 1-1238, looked up, variant H394A)
Lysine-specific demethylase …: MMGVTTTLNEDTEPSIPPGFGPFATLPLWGIHNDAKPAVTHSTPVQALQSIRKDSEECQPSAAVSRSDTPCSTSGTQTCRKSLRNRPPIDYSRFEHISDEDSDVEIVEKDVSSTRRRQQLPKGVLRGCAECSDCQKVIAKWNPAGARRPVLDEAPVFYPTEEEFEDTLKYIESIRPMAEPYGICRIVPPSSWKPPCLLKDKSIWEGSKFSTRVQKVDKLQNRKSSKKGRRGGMMKRRKLAESEENSATAHTQTGMQQSPERFGFEPGPEFTLQTFQKYADDFSKQYFRKDTSMDSVPSVEDIEGEYWRIVEVPTEEIEVIYGADLETGTFGSGFPKLSPETKSDAEDKYAQSGWNLNNLPRLQGSVLSFEGGDISGVLVPWVYVGMCFSSFCWAVEDHHLYSLNYMHWGAPKLWYGVPGKDAVNLESAMRKHLPELFEEQPDLLHNLVTQFSPSLLKSEGVHVYRCVQHEGEFVLTFPRAYHAGFNCGFNCAEAVNVAPIDWLPIGHNAVELYREQARKITISHDKLLLGAAREAIRAQWDILFLKRNTADNMRWKSICGADSTIFKALKARIETELVQRKTLGVPAQSRKMDAEFDSIDRECALCYYDLHLSASGCPCCPEKYACLVHAKQLCSCDWDKRFFLFRYDVNELNILADALGGKLSAIHRWGVSDLGLSLSSCVKREKVQDSKTVRRLTDGPRRSYMSQASAVSLVSSSTSNEQKDEGNKIMKIASPQTNNVCPSVEQRKSENISPLKEPCVRNELSCTTNSDSNGLQYNGGLGGHKGSAPGLPVSSSPSFSSNVATRPISTSSVSMKIVQGLVASKSCIQASSRTGDSRSLLGEHHNRSPAMIHDGTNMKSSLESSNNSCRLIASDYNATPCHSSKDQVLVTPGTNASVVTLKDSSQVHSASSQQFVRTGPWTQSASHEASSPSTSALKPSLDPPAMKNLYGGFTQGSAHPGPPSFSNQQPNDGRLQRTSESLPGVEARARGHPTVTAQPALEIHSRNGGAQKGPRIANVVHRFKCSVEPLEIGVVLSGRLWSSSQAIFPKGFRSRVKYFSIVDPIQMAYYISEILDAGMQGPLFMVKLENCPGEVFINLSPTKCWNMVRERLNMEIRRQLNMGKSNLPTLQPPGSVDGLEMFGLLSPPIVQAIWARDRDHICTEYWRSRPHVLIEDPNNRHMLSQGPPLLALRGLIQRANRDELQVLRSLMTNSNNLDDSSRQQAAHIIEEEIAKQLC
no: H3K4me1 demethylation activity (H3K4me1) | H3K4me2 demethylation activity (H3K4me2) | H3K4me3 demethylation activity (H3K4me3)

B2: W381A: JMJ703 substitution mutant, residue conserved in H3K4 demethylases (protein, UniProt Q53WJ1 1-1238, looked up, variant W381A)
Lysine-specific demethylase …: MMGVTTTLNEDTEPSIPPGFGPFATLPLWGIHNDAKPAVTHSTPVQALQSIRKDSEECQPSAAVSRSDTPCSTSGTQTCRKSLRNRPPIDYSRFEHISDEDSDVEIVEKDVSSTRRRQQLPKGVLRGCAECSDCQKVIAKWNPAGARRPVLDEAPVFYPTEEEFEDTLKYIESIRPMAEPYGICRIVPPSSWKPPCLLKDKSIWEGSKFSTRVQKVDKLQNRKSSKKGRRGGMMKRRKLAESEENSATAHTQTGMQQSPERFGFEPGPEFTLQTFQKYADDFSKQYFRKDTSMDSVPSVEDIEGEYWRIVEVPTEEIEVIYGADLETGTFGSGFPKLSPETKSDAEDKYAQSGWNLNNLPRLQGSVLSFEGGDISGVLVPAVYVGMCFSSFCWHVEDHHLYSLNYMHWGAPKLWYGVPGKDAVNLESAMRKHLPELFEEQPDLLHNLVTQFSPSLLKSEGVHVYRCVQHEGEFVLTFPRAYHAGFNCGFNCAEAVNVAPIDWLPIGHNAVELYREQARKITISHDKLLLGAAREAIRAQWDILFLKRNTADNMRWKSICGADSTIFKALKARIETELVQRKTLGVPAQSRKMDAEFDSIDRECALCYYDLHLSASGCPCCPEKYACLVHAKQLCSCDWDKRFFLFRYDVNELNILADALGGKLSAIHRWGVSDLGLSLSSCVKREKVQDSKTVRRLTDGPRRSYMSQASAVSLVSSSTSNEQKDEGNKIMKIASPQTNNVCPSVEQRKSENISPLKEPCVRNELSCTTNSDSNGLQYNGGLGGHKGSAPGLPVSSSPSFSSNVATRPISTSSVSMKIVQGLVASKSCIQASSRTGDSRSLLGEHHNRSPAMIHDGTNMKSSLESSNNSCRLIASDYNATPCHSSKDQVLVTPGTNASVVTLKDSSQVHSASSQQFVRTGPWTQSASHEASSPSTSALKPSLDPPAMKNLYGGFTQGSAHPGPPSFSNQQPNDGRLQRTSESLPGVEARARGHPTVTAQPALEIHSRNGGAQKGPRIANVVHRFKCSVEPLEIGVVLSGRLWSSSQAIFPKGFRSRVKYFSIVDPIQMAYYISEILDAGMQGPLFMVKLENCPGEVFINLSPTKCWNMVRERLNMEIRRQLNMGKSNLPTLQPPGSVDGLEMFGLLSPPIVQAIWARDRDHICTEYWRSRPHVLIEDPNNRHMLSQGPPLLALRGLIQRANRDELQVLRSLMTNSNNLDDSSRQQAAHIIEEEIAKQLC
no: H3K4me1 demethylation activity (H3K4me1) | H3K4me2 demethylation activity (H3K4me2) | H3K4me3 demethylation activity (H3K4me3)

B3: H482Y: JMJ703 substitution mutant, Fe-binding residue (protein, UniProt Q53WJ1 1-1238, looked up, variant H482Y)
Lysine-specific demethylase …: MMGVTTTLNEDTEPSIPPGFGPFATLPLWGIHNDAKPAVTHSTPVQALQSIRKDSEECQPSAAVSRSDTPCSTSGTQTCRKSLRNRPPIDYSRFEHISDEDSDVEIVEKDVSSTRRRQQLPKGVLRGCAECSDCQKVIAKWNPAGARRPVLDEAPVFYPTEEEFEDTLKYIESIRPMAEPYGICRIVPPSSWKPPCLLKDKSIWEGSKFSTRVQKVDKLQNRKSSKKGRRGGMMKRRKLAESEENSATAHTQTGMQQSPERFGFEPGPEFTLQTFQKYADDFSKQYFRKDTSMDSVPSVEDIEGEYWRIVEVPTEEIEVIYGADLETGTFGSGFPKLSPETKSDAEDKYAQSGWNLNNLPRLQGSVLSFEGGDISGVLVPWVYVGMCFSSFCWHVEDHHLYSLNYMHWGAPKLWYGVPGKDAVNLESAMRKHLPELFEEQPDLLHNLVTQFSPSLLKSEGVHVYRCVQHEGEFVLTFPRAYYAGFNCGFNCAEAVNVAPIDWLPIGHNAVELYREQARKITISHDKLLLGAAREAIRAQWDILFLKRNTADNMRWKSICGADSTIFKALKARIETELVQRKTLGVPAQSRKMDAEFDSIDRECALCYYDLHLSASGCPCCPEKYACLVHAKQLCSCDWDKRFFLFRYDVNELNILADALGGKLSAIHRWGVSDLGLSLSSCVKREKVQDSKTVRRLTDGPRRSYMSQASAVSLVSSSTSNEQKDEGNKIMKIASPQTNNVCPSVEQRKSENISPLKEPCVRNELSCTTNSDSNGLQYNGGLGGHKGSAPGLPVSSSPSFSSNVATRPISTSSVSMKIVQGLVASKSCIQASSRTGDSRSLLGEHHNRSPAMIHDGTNMKSSLESSNNSCRLIASDYNATPCHSSKDQVLVTPGTNASVVTLKDSSQVHSASSQQFVRTGPWTQSASHEASSPSTSALKPSLDPPAMKNLYGGFTQGSAHPGPPSFSNQQPNDGRLQRTSESLPGVEARARGHPTVTAQPALEIHSRNGGAQKGPRIANVVHRFKCSVEPLEIGVVLSGRLWSSSQAIFPKGFRSRVKYFSIVDPIQMAYYISEILDAGMQGPLFMVKLENCPGEVFINLSPTKCWNMVRERLNMEIRRQLNMGKSNLPTLQPPGSVDGLEMFGLLSPPIVQAIWARDRDHICTEYWRSRPHVLIEDPNNRHMLSQGPPLLALRGLIQRANRDELQVLRSLMTNSNNLDDSSRQQAAHIIEEEIAKQLC
no: H3K4me1 demethylation activity (H3K4me1) | H3K4me2 demethylation activity (H3K4me2) | H3K4me3 demethylation activity (H3K4me3)
